Data reported in publication PMC9482650, “Quantitative fragmentomics allow affinity mapping of interactomes” (Nature Communications, 2022).

Tests used:
Assay in all cases: holdup assay
Set-up in all cases: key: below the threshold = too weak to quantify, mostly under pKd 3.1 to 4
Conditions in all cases: plain residues with an end cap or a label only (N-terminal biotin on a linker: ado-ado)
PDZRN4_1, Q6ZMN7 = target: PDZRN4_1, Q6ZMN7
MAST2, Q6P0Q8 = target: MAST2, Q6P0Q8
MPDZ_12, O75970 = target: T1, MPDZ_12, O75970
T1 sequence (O75970 1857-1958, limits assumed, looked up): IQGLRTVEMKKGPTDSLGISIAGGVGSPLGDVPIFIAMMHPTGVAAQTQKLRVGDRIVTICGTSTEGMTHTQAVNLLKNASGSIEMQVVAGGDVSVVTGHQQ

TX1BP3, O14907 = target: T2, TX1BP3, O14907
T2 sequence (O14907 10-122, limits assumed, looked up): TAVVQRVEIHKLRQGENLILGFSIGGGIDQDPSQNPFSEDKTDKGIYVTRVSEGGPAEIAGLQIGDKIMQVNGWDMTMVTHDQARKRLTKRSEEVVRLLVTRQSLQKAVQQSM

Inadl_5, Q8NI35 = target: Inadl_5, Q8NI35
Inadl_5, Q8NI35, sequence (Q8NI35 673-780): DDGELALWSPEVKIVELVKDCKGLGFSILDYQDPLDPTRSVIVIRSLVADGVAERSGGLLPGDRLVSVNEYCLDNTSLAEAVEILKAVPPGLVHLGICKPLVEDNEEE

MAGI2_3, Q86UL8 = target: MAGI2_3, Q86UL8
MAGI2_3, Q86UL8, sequence (Q86UL8 600-682): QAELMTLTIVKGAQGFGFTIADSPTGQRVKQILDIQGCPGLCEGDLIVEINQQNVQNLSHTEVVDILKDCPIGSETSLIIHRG

DLG2_3, Q15700 = target: DLG2_3, Q15700
NHERF2_2, Q15599 = target: NHERF2_2, Q15599
NHERF2_2, Q15599, sequence (Q15599 142-238): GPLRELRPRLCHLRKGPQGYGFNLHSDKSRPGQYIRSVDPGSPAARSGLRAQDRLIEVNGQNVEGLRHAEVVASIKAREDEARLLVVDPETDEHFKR

DLG5_1, Q8TDM6 = target: DLG5_1, Q8TDM6
DLG5_1, Q8TDM6, sequence (Q8TDM6 617-713): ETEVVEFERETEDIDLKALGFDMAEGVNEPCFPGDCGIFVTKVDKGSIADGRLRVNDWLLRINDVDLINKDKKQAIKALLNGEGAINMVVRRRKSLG

SHANK1, Q9Y566 = target: T3, SHANK1, Q9Y566
T3 sequence (Q9Y566 658-767, limits assumed, looked up): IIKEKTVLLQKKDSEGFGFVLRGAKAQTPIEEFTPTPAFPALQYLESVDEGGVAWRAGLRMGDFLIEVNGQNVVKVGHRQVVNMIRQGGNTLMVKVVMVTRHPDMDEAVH

GRASP, Q7Z6J2 = target: GRASP, Q7Z6J2
GRASP, Q7Z6J2, sequence (Q7Z6J2 96-193): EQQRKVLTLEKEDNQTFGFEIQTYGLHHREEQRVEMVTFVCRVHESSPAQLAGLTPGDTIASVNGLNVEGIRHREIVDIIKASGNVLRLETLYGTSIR

PCLO, Q9Y6V0 = target: T4, PCLO, Q9Y6V0
T4 sequence (Q9Y6V0 4491-4600, limits assumed, looked up): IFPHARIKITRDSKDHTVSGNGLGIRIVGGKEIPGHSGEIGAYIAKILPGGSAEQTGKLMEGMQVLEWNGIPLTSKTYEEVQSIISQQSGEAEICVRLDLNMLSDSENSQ

GORASP2, Q9H8Y8 = target: GORASP2, Q9H8Y8
Inadl_1, Q8NI35 = target: Inadl_1, Q8NI35
Inadl_1, Q8NI35, sequence (Q8NI35 113-229): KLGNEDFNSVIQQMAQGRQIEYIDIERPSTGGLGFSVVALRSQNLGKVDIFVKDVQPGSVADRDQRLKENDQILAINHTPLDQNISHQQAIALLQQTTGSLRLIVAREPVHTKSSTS

GRID2IP_1, A4D2P6 = target: GRID2IP_1, A4D2P6
GRID2IP_1, A4D2P6, sequence (A4D2P6 1-87): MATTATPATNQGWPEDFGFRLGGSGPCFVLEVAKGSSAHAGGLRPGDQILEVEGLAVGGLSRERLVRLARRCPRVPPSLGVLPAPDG

DLG3_2, Q92796 = target: T5, DLG3_2, Q92796
T5 sequence (Q92796 221-321, limits assumed, looked up): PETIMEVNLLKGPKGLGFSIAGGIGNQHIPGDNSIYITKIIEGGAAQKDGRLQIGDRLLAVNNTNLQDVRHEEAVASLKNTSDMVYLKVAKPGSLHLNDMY

LNX1_1, Q8TBB1 = target: LNX1_1, Q8TBB1
LNX1_1, Q8TBB1, sequence (Q8TBB1 261-371): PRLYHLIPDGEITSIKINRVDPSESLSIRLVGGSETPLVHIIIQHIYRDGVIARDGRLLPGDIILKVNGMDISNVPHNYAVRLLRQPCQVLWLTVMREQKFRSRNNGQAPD

GIPC2, Q8TF65 = target: GIPC2, Q8TF65
GIPC2, Q8TF65, sequence (Q8TF65 112-203): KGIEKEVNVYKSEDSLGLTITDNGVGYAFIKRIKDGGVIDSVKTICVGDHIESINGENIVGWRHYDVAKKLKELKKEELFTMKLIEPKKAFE

NHERF4_4, Q86UT5 = target: NHERF4_4, Q86UT5
NHERF4_4, Q86UT5, sequence (Q86UT5 464-550): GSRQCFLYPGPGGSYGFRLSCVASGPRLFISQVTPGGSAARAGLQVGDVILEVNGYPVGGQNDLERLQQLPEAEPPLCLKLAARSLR

Inadl_9, Q8NI35 = target: Inadl_9, Q8NI35
Inadl_9, Q8NI35, sequence (Q8NI35 1530-1615): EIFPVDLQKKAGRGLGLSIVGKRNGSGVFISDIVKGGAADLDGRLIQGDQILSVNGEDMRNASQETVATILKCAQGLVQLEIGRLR

MAGI2_2, Q86UL8 = target: MAGI2_2, Q86UL8
MAGI2_2, Q86UL8, sequence (Q86UL8 410-522): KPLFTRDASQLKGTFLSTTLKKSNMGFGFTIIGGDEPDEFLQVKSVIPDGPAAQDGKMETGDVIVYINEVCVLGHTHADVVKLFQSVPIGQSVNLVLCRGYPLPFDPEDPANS

ARHGEF11, O15085 = target: T6, ARHGEF11, O15085
T6 sequence (O15085 42-136, limits assumed, looked up): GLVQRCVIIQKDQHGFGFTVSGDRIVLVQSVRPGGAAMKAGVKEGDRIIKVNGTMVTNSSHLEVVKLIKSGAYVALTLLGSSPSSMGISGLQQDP

PTPN3, P26045 = target: PTPN3, P26045
PTPN3, P26045, sequence (P26045 505-587): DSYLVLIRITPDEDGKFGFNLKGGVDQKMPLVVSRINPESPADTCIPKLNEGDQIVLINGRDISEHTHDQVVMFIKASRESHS

MAGI2_6, Q86UL8 = target: MAGI2_6, Q86UL8
MAGI2_6, Q86UL8, sequence (Q86UL8 1141-1229): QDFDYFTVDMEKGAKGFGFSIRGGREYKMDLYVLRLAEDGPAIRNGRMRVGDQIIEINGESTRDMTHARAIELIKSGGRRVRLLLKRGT

PTPN13_1, Q12923 = target: T7, PTPN13_1, Q12923
T7 sequence (Q12923 1088-1188, limits assumed, looked up): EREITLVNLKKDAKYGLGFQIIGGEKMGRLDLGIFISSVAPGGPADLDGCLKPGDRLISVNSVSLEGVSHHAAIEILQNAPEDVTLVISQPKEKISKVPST

LIN7A, O14910 = target: T8, LIN7A, O14910
T8 sequence (O14910 103-200, limits assumed, looked up): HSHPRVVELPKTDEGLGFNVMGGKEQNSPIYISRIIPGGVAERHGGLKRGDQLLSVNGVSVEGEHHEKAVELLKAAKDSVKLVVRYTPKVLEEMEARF

FRMPD1, Q5SYB0 = target: T9, FRMPD1, Q5SYB0
T9 sequence (Q5SYB0 52-145, limits assumed, looked up): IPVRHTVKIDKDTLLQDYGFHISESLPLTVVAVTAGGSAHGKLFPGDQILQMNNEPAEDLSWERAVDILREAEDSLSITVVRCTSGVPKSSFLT

Inadl_10, Q8NI35 = target: Inadl_10, Q8NI35
Inadl_10, Q8NI35, sequence (Q8NI35 1673-1763): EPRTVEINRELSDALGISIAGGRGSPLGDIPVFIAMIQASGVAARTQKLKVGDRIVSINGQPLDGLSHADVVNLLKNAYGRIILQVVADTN

DLG1_1, Q12959 = target: DLG1_1, Q12959

MAST2, Q6P0Q8, sequence (Q6P0Q8 1099-1202): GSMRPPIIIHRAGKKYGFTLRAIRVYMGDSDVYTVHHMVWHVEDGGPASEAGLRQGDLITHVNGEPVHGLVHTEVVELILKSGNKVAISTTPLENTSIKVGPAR
PDZRN4_1, Q6ZMN7, sequence (Q6ZMN7 213-318): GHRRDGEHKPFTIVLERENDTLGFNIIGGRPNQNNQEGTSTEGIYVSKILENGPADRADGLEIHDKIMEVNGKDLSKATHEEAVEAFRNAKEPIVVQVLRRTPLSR

For SARSRLSSNL [HCN2, Q9UL51], the pKd (PDZRN4_1, Q6ZMN7) was 3.53, the pKd (MAST2, Q6P0Q8) was 5.4 and the pKd (MPDZ_12, O75970) was “below the threshold”. For the same binder, the pKd (TX1BP3, O14907) was 4.23, the pKd (Inadl_5, Q8NI35) was “below the threshold” and the pKd (MAGI2_3, Q86UL8) was “below the threshold”. The pKd (DLG2_3, Q15700) was “below the threshold”, the pKd (NHERF2_2, Q15599) was 4.44 and the pKd (DLG5_1, Q8TDM6) was “below the threshold”. The pKd (SHANK1, Q9Y566) was 4.09, the pKd (GRASP, Q7Z6J2) was 4 and the pKd (PCLO, Q9Y6V0) was “below the threshold”. The pKd (GORASP2, Q9H8Y8) was “below the threshold”, the pKd (Inadl_1, Q8NI35) was “below the threshold” and the pKd (GRID2IP_1, A4D2P6) was “below the threshold”. The pKd (DLG3_2, Q92796) was “below the threshold”, the pKd (LNX1_1, Q8TBB1) was “below the threshold” and the pKd (GIPC2, Q8TF65) was “below the threshold”. For the same binder, the pKd (NHERF4_4, Q86UT5) was “below the threshold”, the pKd (Inadl_9, Q8NI35) was “below the threshold” and the pKd (MAGI2_2, Q86UL8) was 3.71. The pKd (ARHGEF11, O15085) was 3.74, the pKd (PTPN3, P26045) was 4.16 and the pKd (MAGI2_6, Q86UL8) was “below the threshold”. The pKd (PTPN13_1, Q12923) was “below the threshold”, the pKd (LIN7A, O14910) was “below the threshold” and the pKd (FRMPD1, Q5SYB0) was “below the threshold”. The pKd (Inadl_10, Q8NI35) was “below the threshold” and the pKd (DLG1_1, Q12959) was “below the threshold”.

In the case of IKAIVDLTGL [TRAF2, Q12933], the pKd (PDZRN4_1, Q6ZMN7) is reported as “below the threshold”, the pKd (MAST2, Q6P0Q8) is reported as 5.48 and the pKd (MPDZ_12, O75970) is reported as “below the threshold”. For the same binder, the pKd (TX1BP3, O14907) was “below the threshold”, the pKd (Inadl_5, Q8NI35) was “below the threshold” and the pKd (MAGI2_3, Q86UL8) was “below the threshold”. The pKd (DLG2_3, Q15700) was “below the threshold”, the pKd (NHERF2_2, Q15599) was 3.91 and the pKd (DLG5_1, Q8TDM6) was “below the threshold”. The pKd (SHANK1, Q9Y566) was 3.49, the pKd (GRASP, Q7Z6J2) was 3.94 and the pKd (PCLO, Q9Y6V0) was “below the threshold”. For the same binder, the pKd (GORASP2, Q9H8Y8) was “below the threshold”, the pKd (Inadl_1, Q8NI35) was “below the threshold” and the pKd (GRID2IP_1, A4D2P6) was “below the threshold”. The pKd (DLG3_2, Q92796) was “below the threshold”, the pKd (LNX1_1, Q8TBB1) was “below the threshold” and the pKd (GIPC2, Q8TF65) was “below the threshold”. The pKd (NHERF4_4, Q86UT5) was “below the threshold”, the pKd (Inadl_9, Q8NI35) was “below the threshold” and the pKd (MAGI2_2, Q86UL8) was “below the threshold”. For the same binder, the pKd (ARHGEF11, O15085) was “below the threshold”, the pKd (PTPN3, P26045) was 3.91 and the pKd (MAGI2_6, Q86UL8) was “below the threshold”. The pKd (PTPN13_1, Q12923) was “below the threshold”, the pKd (LIN7A, O14910) was “below the threshold” and the pKd (FRMPD1, Q5SYB0) was “below the threshold”. For the same binder, the pKd (Inadl_10, Q8NI35) was “below the threshold” and the pKd (DLG1_1, Q12959) was “below the threshold”.

EKKTLIGIKL [GOT1L1, Q8NHS2] was tested, and the pKd (PDZRN4_1, Q6ZMN7) was “below the threshold”, the pKd (MAST2, Q6P0Q8) was 4.66 and the pKd (MPDZ_12, O75970) was “below the threshold”. The pKd (TX1BP3, O14907) was “below the threshold”, the pKd (Inadl_5, Q8NI35) was “below the threshold” and the pKd (MAGI2_3, Q86UL8) was “below the threshold”. The pKd (DLG2_3, Q15700) was “below the threshold”, the pKd (NHERF2_2, Q15599) was 3.64 and the pKd (DLG5_1, Q8TDM6) was “below the threshold”. The pKd (SHANK1, Q9Y566) was “below the threshold”, the pKd (GRASP, Q7Z6J2) was “below the threshold” and the pKd (PCLO, Q9Y6V0) was “below the threshold”. The pKd (GORASP2, Q9H8Y8) was “below the threshold”, the pKd (Inadl_1, Q8NI35) was “below the threshold” and the pKd (GRID2IP_1, A4D2P6) was “below the threshold”. The pKd (DLG3_2, Q92796) was “below the threshold”, the pKd (LNX1_1, Q8TBB1) was “below the threshold” and the pKd (GIPC2, Q8TF65) was “below the threshold”. For the same binder, the pKd (NHERF4_4, Q86UT5) was 3.5, the pKd (Inadl_9, Q8NI35) was “below the threshold” and the pKd (MAGI2_2, Q86UL8) was 3.52. The pKd (ARHGEF11, O15085) was “below the threshold”, the pKd (PTPN3, P26045) was “below the threshold” and the pKd (MAGI2_6, Q86UL8) was “below the threshold”. For the same binder, the pKd (PTPN13_1, Q12923) was 3.63, the pKd (LIN7A, O14910) was “below the threshold” and the pKd (FRMPD1, Q5SYB0) was “below the threshold”. The pKd (Inadl_10, Q8NI35) was “below the threshold” and the pKd (DLG1_1, Q12959) was “below the threshold”.
